Results from paper PMC2704239.

T1: myc-tagged Tdrd2, Q80VL1
T1 chain: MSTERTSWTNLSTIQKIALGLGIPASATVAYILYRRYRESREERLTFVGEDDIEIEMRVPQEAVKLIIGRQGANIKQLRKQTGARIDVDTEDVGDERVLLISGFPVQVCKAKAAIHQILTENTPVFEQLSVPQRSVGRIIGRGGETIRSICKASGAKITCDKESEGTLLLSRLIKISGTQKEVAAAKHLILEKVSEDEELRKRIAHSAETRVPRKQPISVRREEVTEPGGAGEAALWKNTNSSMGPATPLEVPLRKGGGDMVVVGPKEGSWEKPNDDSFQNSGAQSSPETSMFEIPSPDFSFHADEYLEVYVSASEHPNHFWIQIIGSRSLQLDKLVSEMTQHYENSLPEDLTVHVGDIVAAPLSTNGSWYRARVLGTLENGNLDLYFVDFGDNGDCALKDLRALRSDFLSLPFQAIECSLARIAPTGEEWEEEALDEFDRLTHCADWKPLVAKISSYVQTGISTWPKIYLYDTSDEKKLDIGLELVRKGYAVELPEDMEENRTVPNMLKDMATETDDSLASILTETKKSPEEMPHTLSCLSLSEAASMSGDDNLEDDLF


Legend:
Experiment in all cases: co-IP
[1] = biological target: FLAG-tagged Mili N-terminal domain (mouse)
[2] = biological target: FLAG-tagged Mili region containing the PAZ, Mid, and Piwi domains (mouse)
myc-tagged Tdrd2, Q80VL1 = biological target: T1, myc-tagged Tdrd2, Q80VL1; settings: remark: other sources report otherwise

| co-IP of Tdrd1 as percent of full-length Mili [1] | binding as percent of the wildtype level [2] | fold weaker interaction than with Tdrd1 (myc-tagged Tdrd2, Q80VL1) | Binder |
| --- | --- | --- | --- |
| 76% | 11% |  | myc-tagged Tdrd1 (natural protein) MMPRNNLEASTCKMAEPFNFEKKESKPPPQDPLRSPVAQHNHPTFRLKSPENGNTKNNFLLCEQNKQYLASQEDSSVVSSNPAVVNGEVGGSKGDRKPPPTGNPVSPLSLGNSSPPNQVKTKPSSNVTPEKSKKSHKLFENALSVNNPALFNSLGPPLRSTTCHRCGLFGSLRCSQCKQTYYCSTACQRRDWSSHSTICRPVQQSLNKLEDNKSPFETKAIEVKSEVDCPPGVTKEITAGAERVMFSDLRSLQLKKTMEIKGTVTEFKHPSNFYIQLYSSEVLENMNQLSTSLKETYANVVPEDGYLPVKGEVCVAKYTVDQTWNRAIVQAVDVLQRKAHVLYIDYGNEEMIPIDSVHPLSRGLDLFPPSAIKCCVSGVIPTAGEWSEGCVAAVKALLFEQFCSVKVMDILEEEVLTCAVDLVLQSSGKQLDHVLVEMGYGVKPGEQSSTEQSVDHSALEDVGRVTVESKIVTDRNALIPKVLTLNVGDEFCGVVAHIQTPEDFFCQQLQSGHKLAELQESLSEYCGHVIPRSDFYPTIGDVCCAQFSEDDQWYRASVLAYASEESVLVGYVDYGNFEILSLKRLCPIIPKLLDLPMQALNCVLAGVKPSLGIWTPEAVCVMKEMVQNRMVTVRVVGMLGTRALVELIDKSVAPHVSASKALIDSGFAIKEKDVADKGSSMHTASVPLAIEGPAEALEWTWVEFTVDETVDVVVCMMYSPGEFYCHFLKDDALEKLDDLNQSLADYCAQKPPNGFKAEIGRPCCAFFSGDGNWYRALVKEILPSGNVKVHFVDYGNVEEVTTDQLQAILPQFLLLPFQGMQCWLVDIQPPNKHWTKEATARFQACVVGLKLQARVVEITANGVGVELTDLSTPYPKIISDVLIREQLVLRCGSPQDSLMSRPANQHKQIDSHRVQASPSAEQWKTMELPVNKTIAANVLEIISPALFYAIPSEMSENQEKLCVLAAELLEHCNAQKGQPAYRPRTGDACCAKYTNDDFWYRAIVLETSESDVKVLYADYGNIETLPLSRVQPIPASHLELPFQIIRCSLEGPMELNGSCSQLVMELLRNAMLNQSVVLSVKAISKNVHAVSVEKCSENGMINIAENLVMCGLAENLTSKRKSASTKEIPHSRDCCCTELQKQIEKHEQILLFLLNNPTNQSKFTEMKKLLRS |
|  |  | 20 fold | FLAG-tagged Mili, Q8CDG1 1-971 (natural protein) MDPVRPLFRGPTPVHPSQCVRMPGCWPQAPRPLEPAWGRAGPAGRGLVFRKPEDSSPPLQPVQKDSVGLVSMFRGMGLDTAFRPPSKREVPPLGRGVLGRGLSANMVRKDREEPRSSLPDPSVLAAGDSKLAEASVGWSRMLGRGSSEVSLLPLGRAASSIGRGMDKPPSAFGLTARDPPRLPQPPALSPTSLHSADPPPVLTMERKEKELLVKQGSKGTPQSLGLNLIKIQCHNEAVYQYHVTFSPSVECKSMRFGMLKDHQSVTGNVTAFDGSILYLPVKLQQVVELKSQRKTDDAEISIKIQLTKILEPCSDLCIPFYNVVFRRVMKLLDMKLVGRNFYDPTSAMVLQQHRLQIWPGYAASIRRTDGGLFLLADVSHKVIRNDSVLDVMHAIYQQNKEHFQDECSKLLVGSIVITRYNNRTYRIDDVDWNKTPKDSFVMSDGKEITFLEYYSKNYGITVKEDDQPLLIHRPSERQNNHGMLLKGEILLLPELSFMTGIPEKMKKDFRAMKDLTQQINLSPKQHHGALECLLQRISQNETASNELTRWGLSLHKDVHKIEGRLLPMERINLRNTSFVTSEDLNWVKEVTRDASILTIPMHFWALFYPKRAMDQARELVNMLEKIAGPIGMRISPPAWVELKDDRIETYIRTIQSLLGVEGKIQMVVCIIMGTRDDLYGAIKKLCCVQSPVPSQVINVRTIGQPTRLRSVAQKILLQMNCKLGGELWGVDIPLKQLMVIGMDVYHDPSRGMRSVVGFVASINLTLTKWYSRVVFQMPHQEIVDSLKLCLVGSLKKYYEVNHCLPEKIVVYRDGVSDGQLKTVANYEIPQLQKCFEAFDNYHPKMVVFVVQKKISTNLYLAAPDHFVTPSPGTVVDHTITSCEWVDFYLLAHHVRQGCGIPTHYICVLNTANLSPDHMQRLTFKLCHMYWNWPGTIRVPAPCKYAHKLAFLSGQILHHEPAIQLCGNLFFL |
